experiment: soluble on expression in E. coli; label from the status in PepcDB or PDB records

Row | Sequence | soluble on expression in E. coli
1 | MSMPKCEICNDDYSSEDGDHSPRNLKCSHTLCEGCIKKMLGNSKIVCPFCREPTDMPGNKMESLHKNFALIQAIQLFAKTTKITEVEEPMLEKCKHHPDYLVETVCVEEDCSESGKYMCRKCVSTLSHLHHTKKSLIAEMEKSRELLQGRINRLNKTIGEIDQDVRKLRMSQIAFREGGNNYQQKANEITTFYSRIREMVNEREKEALVKLKEVAKSILDENDSALPPLLRSHQKLTEYVRKATEAKKRNNAIACITAAEDLLNKTKDCCDEEYYTIESQDINVCIKPIDIPVATITRK | not soluble
2 | MSMVETAPSKIQVRDLNFYYGKFHALKNINLDIAKNQVTAFIGPSGCGKSTLLRTFNKMYSLYPEQRAEGEILLDGDNILTNTQDIALLRAKVGMVFQKPTPFPMSIYDNIAFGVRLFEKLSRADMDERVQWALTKAALWNETKDKLHQSGYSLSGGQQQRLCIARGIAIRPEVLLLDEPCSALDPISTGRIEELITELKQDYTVVIVTHNMQQAARCSDHTAFMYLGELIEFSNTDDLFTKPAKKQTEDYITGRYG | not soluble
3 | MSNEQLADLTQPQRDRLAFVELRVRFIGEIRRQDLVTRFGIQSAAASRDLALYKELAPGNIDYDSKGKSYVLGPDFRPVFDFPPERVLSWLTQGFGDGEPMRLKAWVASESPSRLTHPDLDVLASVTRAIHQECPLGIEYHSISSGRTEREIVPFALIDNGLRWHVRAFDRKSQEFRDFVITRIKRPVLIRDAEVQSHERSDQDIQWTRIVELEMVPHPDQPRPEITEMDYGMVRGSLRMKLRAATAGYILRQWSVDCSPDHSLRGYEFRLWLKDHLALYGVKNAVLAPGYRSPDQNKGEQ | soluble
4 | MSNNETMMFNVEKEKVNEARELLVSVYKALKEKGYNPINQIVGYILSGDPTYITNHLDARSSIRKVERDELLEEILRCYLEECIGKEGSV | soluble
5 | MSNNKQAWTGQLDLSVFNNGKKSVARDVFFEKALKVMRPVYLNQSDIPTFYIVNVGGGYLDGDRYTMNFNIDSDAKVILTSQGATKIYKTLNDHVEQYQTFNIKNNGYAEYVGDPIIAFENAKFYQHNVFNLESTASLFYTDILTPGYSKSDKRFSYTYMHLLNEIYVDDALVTFDNMLLDPQKQNVDGLGYMEDYTHLGSCYFIHPSVNQKFIEQVYEEIKHFQHKYDCRFGITHLPTHGFSLRILSNKTQVIESIITAVQCYVVKQIFDRDVDFLRKYLEHHHHHH | not soluble
6 | MSNPTKISILGRESIIADFGLWRNYVAKDLISDCSSTTYVLVTDTNIGSIYTPSFEEAFRKRAAEITPSPRLLIYNRPPGEVSKSRQTKADIEDWMLSQNPPCGRDTVVIALGGGVIGDLTGFVASTYMRGVRYVQVPTTLLAMVDSSIGGKTAIDTPLGKNLIGAIWQPTKIYIDLEFLETLPVREFINGMAEVIKTAAISSEEEFTALEENAETILKAVRREVTPGEHRFEGTEEILKARILASARHKAYVVSADEREGGLRNLLNWGHSIGHAIEAILTPQILHGECVAIGMVKEAELARHLGILKGVAVSRIVKCLAAYGLPTSLKDARIRKLTAGKHCSVDQLMFNMALDKKNDGPKKKIVLLSAIGTPYETRASVVANEDIRVVLAP | soluble
7 | MSNRVPTNILTGFLGVGKTTTILNLLKNKPENENWAVLVNEFGEIGIDGALMTDQGALIKEVPGGCMCCTAGVPMSVGITALLRQKPDRLLIEPTGLGHPKQVIATLTSEQYLPYVDLKATIALVDPRNLSDEKYTSNQNFVDQLDSADVVIGSKVDLCSSHDIDVFNDWVTDQTPAKVFSKLIHNGELPIEVLDIERVHGSASSHIETHHHEHAHQEPQFQLPPGEAFIRKENKGQGYFSCGWLFGAEYKFDFDKLFSMLSDLTAERVKAVVNTNQGCYAFNVANRVVSVNEISLEGFESRLEVIDSQLLPWDELEQILLQLAGVEGLEHHHHHH | soluble
8 | MSNSLEERLRANSSAFDGLLALIPAKYYYDEKSQEQWKAKKKTKEQSKNDKLKKLDPEQRDDETSSTLEVMKKKEKDAKPVVLPGEKFKHMKMQKQKEATSKVEGDSDLNVEVNDPMIIAPDEDEEEEEDIKVIFDDEGNEIPLESKKDTTEPDRSVEKKSITEEEKLQRKKNLEALRSKLQAKISDMKSKRKAPGSREAILAQRKRKEELKKRKRLESEQEQDQDEIASDSDMEDIDSDLENNSKKRFKKGKKDSEINADGVMFQNIIFDDGARATSDLQRLRKAGRTKGPAKNDVKSHLKLLEAKKNKMEAKDELEQIKQKEKEKWQKAMLQAEGIKIRDDEKLLRKAIKRKEAQKRKSAIEWSERKRVVEDTISERQKRREENLRIRKDNKGKKRNKQEKMKRKYVGSAVPKKRAGFEGRLKTGKKKGGPK | not soluble
9 | MSNSNKLIAEKNGSRYGRMIHPWLRKKQDMLADTPSRREGMTYEEELSKRQQGGVFIFDIAMQLTHGKGEHGLSGVAATLFNRFFNVHSLKRCDFRDVAAACVFLAGKNEDAPKKLKYVVTQLWQFKYPHNKQFQSEQHFLDQCNVVTLIEDVLLKTISFDINVDLPHQYVLKLMRDVEKGRNVYKDMVKTAYYMATDVLIITDWSVRYSCASIATACVNIAAFFHNINMDDIVPFELSDRWYRLEDQSMTREEVEAMTKEFLDIFSRNPQFHIGSLKKIDPLGKVKIVGMPPQVSSTVTPSGSSSNLKKIDLESYKGRPKPLSNSSDSPSTRPSFLPDVKNQKVVEQELMEQRMKEAAQQKIHRNGHRPSSSSHPLHHHSTSSSASNNSNHQNRSSSGLSAHQHQKPYNEDSRSAKRSMMYEETNSSKKPRIDYKMSFVASSSTTIATMHNDHFSQTTHQQNISTYARGVNEMMLNQVAPPPLMSVSAQPSTYQKMCMEYQRNPADSRHTMSSTQQISPPDEPSPPVSQILLPPPPPPPILPPRLDEMEEGELV | not soluble
10 | MSNSSKDADSNLKSTVKPRYLILGSGSIGFALAKELRESNKLVIIVDKDEAKIETLREEGFEAILGDISDPELVNNIDLKNVVAILFLSSNNEANRKGIENFKKVVNPDIQIFSRASDIINKEKMEDLGSDYVFMPSKLVASSLSRSLERAESVHRGNRLARWLKGIRDKKLAIVIHDNPDPDAISSGLALKEIAKSLGVEASILYHGRIGHQENKAFVNLLGIDLGKMEEHDLKDFDEIALIDCSIPGVNNMVPPNSYVGIVIDHHPPGETEIKAEYIDIRPNFGATATIMTKYLQQLNINISKTLATALLYGIRTDTQDFKRKTDPADLSAASYLYPLSNHGILDQLEQPSMAIETLEVLGEAIRNRQVLGSYLLSNVGNIRDRDTLPQAADYLLSLEGISTTVVFGVSEDRIYISGRSTDIRVNLGEIMRQAFGEDAGGHANAAGAQIPLGVFSATKDRQTLLRLVNEAVVKRFLSAVGVESTGE | soluble
11 | MSNVAENNDGVYDAPTGITAPPIDELLKHVSSKYALVIFAAKRARQINSYYQQADEGVFEFVGPLVTPEAQEKPLSIAMREIEAGLLDHEEG | not soluble
12 | MSNVAKSYKSSDPVIAYCSEHTTIQSPLQAELLKETLDNAPMSMMLGAPEVLTFGQNFIRSFGGRRVIDVGTYTGASALAWALAVPDDGEVFTFDIDHTNYKKFGVPIISKCEKTFKKIRAIEGSALDGLDKLIADGQSGTFDFAFIDADKVNYSNYYDRAVTLLRKGGVIFVDNSLWNGSVCDPARRTEPSTVAIHQANDKIFKDDRTYSALINLGDGTHIAFKK | not soluble
13 | MSNVCIVYSSTHHGNTEKVLNKIKEKFPETVLIKAGDFNPDDFNRYEAIGFASGIFYFKFAKPVDKLFEQALVGSVQKLFFIYTAGAVNAGFEKTLRKKTEQSGKICMGIFGCKGFDTFGPLKLIGGLNKNSPNEKDFKNAIDFFEKNIINALEHHHHHH | soluble
14 | MSPFGKIAIVGSGLVGSSWATIFASSGYEVQMYDISEKQLQVALENVEKNLRKLDEHGLQRGNLSADEALLRVSTTTSLNEVMKNAIYMQESALEDLNFRIQFYKVIDEIADPTTILASSTSTIPASKFTDGLINKERCLIVHPVNPPLFLPLTELVPAPWTSQDTVDRAAEIMRSVKQEPVKLKKEVLGFVVNRLQFALLAETWRLVADGVIGVNDVDAVMSAGLGPRYAFNGTCETVHLNAFGVRDYFKRYAAGITAVLKDMGPIPDFTDEKVINKLEEELEPKMSTLNIRKHQAEREEKLVEIAKLKKDLNL | not soluble
15 | MSPKSVVVTGSNRGLGFGLVQQFLKDPNVQHVIATARDVDKATALKGICDPRLHILQLSLGSDESIANFAEKVSEIVGESGLTLLINNAAVMLPYVTKQKPDRKVVLDLFESNTIGPMMLTQSLVPLIIKASKRQEGDTLSVSRGAIINIASEFLGSISENTSGSGEYKAMAYRMTKCAVNQFTKTLSIDLKDDHILTAGICPGMVQTDMSKGKGQLTIEESSSQILAAFNKLGATHNGGYFRRDLSIIPY | not soluble
16 | MSPLNLHTDTTPSLLTFSDVKSFEKIYTMYWARVYATCYNTIKEREVAKEMVQDIFKSLWERKDELEIKTSVEHYLVRAAKFKVFEYIRNKTNQKKHTACALEDYCSATNCTEDAILYSNLTEKVGVLVDRLPCQCRNVYTLSRTEGLTNKEIATRLLISERAVEQHITKALRFLRENLQEYRS | not soluble
17 | MSPSIFPPINFLFQNSALLSSFAAQKALSNGHPSGSSLAALEKLSKAFRRPDLHIEKLASSCIDKQKDLKMTNVVPSRNRYGRPYISGRPLLTCDRQKIVECYKKGMKKIHIAKQLGITHSCVSKVLRR | not soluble
18 | MSPVVSEASPERWDDETDVLVIGSGAGGLSAALFAAQAGLRVLICEKLAYVGGTTATSGGGIWVPGTKAGLAAGDTLEAARTYLKALLGDFYQEEVIDTYLATGGKVIDFLNENTEVKFDLSSWPDYRSSLPGGATRGRSLFPQPFDGKKLGRNFSLLHPPLHRLMVLGGLMLGPEEVHDFLRPFSSPRALMRVLRKLLRYGMDRIRYARGTDLRSGNALAARLLYSVDKLGCRILTQADLESLAIDHDRVIGATVVVGGVPKRIRASKAVLLATGGFAHNQEMLRRYGPATPHRFSLCNPACTGAGIQAALDAGASVDRELSSVGFWTPASASREKNGADTPVIYGYLDRGRPGVIAVNEQGERFVNEANSYHDIVTAIFANGGADGKPFYFITDREFVRRHGLGLIRPWPWNRSLRPWIRRGYITVASTLDKLGPKIGIDPGALAAAVQRHNQSARTGQDPDFHKGASAYNRMFGHNMTWPNPNLAPIETPPFVALRIHPATIGTAMGLKTSASGQALNAAGQPISGLYACGNNQASPFRGFYPGGGSTLGPAIVGAYLAVQSLSKPLEHHHHHH | soluble
19 | MSQESSVLSESQEQLANNPKIEDTSPPSANSRDNSKPVLPWDYKNKAIEIKSFSGYKVNFTGWIRRDVREERQRGSEFTASDVKGSDDKATRKKEPADEDPEVKQLEKEGEDGLDS | soluble

Source: the DeepSol protein solubility set
